Measured values from the supplement of paper PMC10724198.
± gives the standard deviation of the averaged measurements.

What follows are sequences tested on Saccharomyces cerevisiae (assay: protein stability index of tFT-peptide fusion (C-terminal peptide) (PSI (0-1 scale)); higher = more stable (slower turnover)). Details: genetic background: wild type; temperature: 30 C.
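Note: PSI is a weighted mean of sequencing reads over stability bins, variants kept only with over 10 reads, mCherry proximal and sfGFP distal, peptide attached via GGGS linker.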

| Sequence | protein stability index |
| --- | --- |
| KGNDQVLRLFIR | 0.73 ± 0.021 |
| VFGPRSIARGAI | 0.727 ± 0.12 |
| LRPSPGYRLGIH | 0.791 ± 0.1 |
| LKKDVYANNLTD | 0.673 ± 0.004 |
| LPLPPLRSSRPL | 0.665 ± 0.036 |
| VMCWARGWVGST | 0.655 ± 0.05 |
| LLHCPSRGFLFS | 0.851 ± 0.17 |
| TESGWMGRGFMR | 0.656 ± 0.088 |
| DETELTQRTKRV | 0.656 ± 0.017 |
| IPSSMWHICCLC | 0.538 ± 0.025 |
| IKVRGEQAEEAE | 0.684 ± 0.04 |
| DVAYSSSNAVHR | 0.669 ± 0.045 |
| AFDPGLPPRRSD | 0.755 ± 0.011 |
| RIKKKKNKARDI | 0.734 ± 0.035 |
| LLQQILKDYAEI | 0.686 ± 0.033 |
| IFWVGLSYVAEQ | 0.65 ± 0.0084 |
| PIAASAPPLCPR | 0.692 ± 0.014 |
| GISLTVTVRGWL | 0.496 ± 0.019 |
| CPGTSLVLPPLL | 0.688 ± 0.019 |
| MGGLFGWLVFWI | 0.653 ± 0.27 |
| STSPRSAFSPLT | 0.619 ± 0.011 |
| ARGGGRSEGGEG | 0.7151 ± 0.0024 |
| WGRGHPIYVCRV | 0.689 ± 0.013 |
| WGACSALRRLGY | 0.684 ± 0.044 |
| VAAQRYAQRLFT | 0.652 ± 0.021 |
| PFPFSLPSPPLP | 0.551 ± 0.14 |

| Sequence | protein stability index |
| --- | --- |
| GAGASEGEPMED | 0.7 ± 0.046 |
| RYGLSLLQASRR | 0.679 ± 0.081 |
| YPRGFPTLSYSS | 0.727 ± 0.023 |
| CTRHNGTCRVKA | 0.658 ± 0.017 |
| TLSLPPLHPPPH | 0.699 ± 0.0063 |
| PPPSPPSPHAPP | 0.643 ± 0.1 |
| KENKKKNKKYKK | 0.785 ± 0.16 |
| LYCLVEGVYTLI | 0.662 ± 0.06 |
| APPPPHSSHPPP | 0.713 ± 0.027 |
| GKHIAEMGNRKN | 0.716 ± 0.074 |
| VMVVKSSSNTNI | 0.641 ± 0.0077 |
| LYPVPLSPPPAD | 0.676 ± 0.026 |
| PARPPPPRPPPP | 0.712 ± 0.03 |
| GRTDKKKFISGL | 0.608 ± 0.029 |
| RASQRGVRGGGG | 0.666 ± 0.02 |
| VLGPWVLSVLWF | 0.546 ± 0.022 |
| EVRTRSSRIHRI | 0.709 ± 0.082 |
| NSALQELNKAVG | 0.625 ± 0.029 |
| LTKTAHVGQLWL | 0.708 ± 0.025 |
| PTIKPSPRFPLS | 0.71 ± 0.021 |
| PLRSLNHSGRPP | 0.641 ± 0.06 |
| FKLVPCLGPSHF | 0.741 ± 0.047 |
| LGCVLGLLVFGG | 0.601 ± 0.041 |
| FSLPPAASDFPS | 0.685 ± 0.015 |
| LSFPAPLPLFNT | 0.767 ± 0.037 |
| PSPLALRTPSFS | 0.692 ± 0.02 |

| Sequence | protein stability index |
| --- | --- |
| ISLRELNEVCRS | 0.668 ± 0.029 |
| SFSLVATESPVT | 0.709 ± 0.052 |
| WVGEVSMGVRAG | 0.666 ± 0.014 |
| ACLIHWVVSGAR | 0.677 ± 0.016 |
| QFTSPHLNPFRT | 0.6783 ± 0.0058 |
| AVLPFFPCFSAF | 0.69 ± 0.038 |
| FFVFFPLGGFWL | 0.668 ± 0.085 |
| SPRRSPLLLLPL | 0.723 ± 0.064 |
| GDGVIVEVEGVN | 0.675 ± 0.071 |
| PRVRSPLLSPPQ | 0.606 ± 0.017 |
| PPRRPPPPPPLP | 0.7168 ± 0.0045 |
| SPYVGVALGGVW | 0.704 ± 0.012 |
| GFDVGKRGRFGL | 0.635 ± 0.09 |
| QIEEDINLVTCN | 0.739 ± 0.049 |
| EPNEKEKNKEVK | 0.704 ± 0.0079 |
| LALDPVNLVTSL | 0.682 ± 0.051 |
| DWSGTISVSSLR | 0.672 ± 0.1 |
| SCFVAWAFCGWY | 0.554 ± 0.0084 |
| GGGGGRSSPGGS | 0.678 ± 0.073 |
| RRRREKEKRSQE | 0.734 ± 0.14 |
| SPSPPLPSRLIL | 0.673 ± 0.026 |
| KIKSKKEKPQVT | 0.687 ± 0.023 |
| SLPVLSSRTSIQ | 0.687 ± 0.012 |
| TNANKKNGRGNT | 0.683 ± 0.041 |
| GGRGVEVAGKGW | 0.686 ± 0.08 |
| SHLSTLSHPPPP | 0.637 ± 0.043 |

| Sequence | protein stability index |
| --- | --- |
| KHLNFNTNKRKD | 0.651 ± 0.0093 |
| PVGDDDRTIPRL | 0.661 ± 0.043 |
| FLPFRPFPPFSA | 0.621 ± 0.0064 |
| LGCLHRLLGVRL | 0.752 ± 0.048 |
| TPTRRIIPHTHP | 0.685 ± 0.086 |
| ICSDGIYTKGLC | 0.66 ± 0.024 |
| PSPAPSGPAHHP | 0.667 ± 0.05 |
| SPRPLFPPHRPT | 0.651 ± 0.044 |
| TVVSFMFCPSLT | 0.667 ± 0.061 |
| AILSDGLTHWGL | 0.736 ± 0.058 |
| IRIKLTYYKSYL | 0.678 ± 0.13 |
| MNPRLTNKNNSS | 0.765 ± 0.058 |
| LFCLCYDVCVPS | 0.662 ± 0.035 |
| LYVFFRFPSCLS | 0.555 ± 0.018 |
| LRGLAVWCGYFS | 0.619 ± 0.02 |
| GASVSCQWFCGA | 0.694 ± 0.015 |
| KPRKEKRGLVNS | 0.664 ± 0.039 |
| LRPFLFSALPLT | 0.672 ± 0.01 |
| SFAPPLRCPPSS | 0.709 ± 0.02 |
| FDVLGPRVVSWV | 0.633 ± 0.093 |
| LGGGCVRCVFMW | 0.637 ± 0.039 |
| SFSCYFPLGFFG | 0.7416 ± 0.001 |
| TNKRKNIRTKQR | 0.638 ± 0.037 |
